Source: US20050171016A1

Biological target: CD36 receptor on human dermal microvascular endothelial cells (HDMEC) (human) (UniProt P16671)
Experiment: cell-based or functional assay

UniProt P16671, sequence (P16671 2-472): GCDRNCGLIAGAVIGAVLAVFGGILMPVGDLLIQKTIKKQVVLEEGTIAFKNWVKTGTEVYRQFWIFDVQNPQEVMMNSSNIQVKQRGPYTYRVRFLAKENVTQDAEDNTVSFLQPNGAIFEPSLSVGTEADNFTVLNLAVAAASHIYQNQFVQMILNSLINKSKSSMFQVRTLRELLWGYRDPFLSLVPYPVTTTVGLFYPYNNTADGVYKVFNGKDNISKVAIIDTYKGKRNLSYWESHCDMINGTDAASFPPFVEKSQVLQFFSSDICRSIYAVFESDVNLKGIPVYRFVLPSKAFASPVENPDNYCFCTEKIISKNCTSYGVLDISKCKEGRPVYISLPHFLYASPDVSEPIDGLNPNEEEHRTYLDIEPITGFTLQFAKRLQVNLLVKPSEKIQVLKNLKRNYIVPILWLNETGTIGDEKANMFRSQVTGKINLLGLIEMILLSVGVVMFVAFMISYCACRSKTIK

inhibition of HDMEC migration (Transwell, 10 ug/ml TSP-1) [%] | inhibition of HDMEC migration in the presence of 10 ug/ml anti-CD36 antibody (clone FA6-152) [%] | inhibition of HDMEC migration (Transwell, TSP-2 conditioned medium) [%] | Substance
54 | 20.8 | – | human thrombospondin-1 (TSP-1) (from UniProt P07996 19-1170)
– | 36.1 | 54.2 | mouse thrombospondin-2 (TSP-2) (from UniProt Q03350 19-1172)
